We go through one substance from article PMC4899803.

The target in the assay is cytochrome bd from Escherichia coli, His6-tagged (His6-CydABX) (E. coli) (UniProt P0ABJ9). Kind of assay: SEC; 500 ug purified cytochrome bd on Superose 6 10/300 in 50 mM MOPS, 100 mM NaCl, 0.1% LM, pH 7; UV 280 nm, refractive index and right angle light scattering monitored.

By stoichiometry N is commonly meant a count of units in the complex or per binding partner.

“cytochrome bd from Escherichia coli, His6-tagged (His6-CydABX) (from UniProt P0ABJ9 1-522; P0ABK2 1-379) (complex)” registered a stoichiometry N of 4.
